{
  "source": "patent US6252057",
  "biological_target": "PP1C in 3T3-L1 adipocyte lysates (mouse (endogenous in 3T3-L1 adipocytes))",
  "experiment": "GST-PTG added to 3T3-L1 adipocyte lysates, fractionation, PP1 activity in the glycogen pellet",
  "data": [
    {"substance": "GST-PTG fusion protein", "values": [
      {"measurement": "fold increase in the PP1 activity sedimenting with the glycogen pellet", "result": 8, "unit": "fold"}
    ]}
  ]
}
